Experimental findings from patent publication US6379950 (THOMAS JEFFERSON UNIVERSITY, dated 2002) are described below.

fmk = not defined here

Sequences and labels used below:
T1: C-terminus of lamin A, P02545
T1 chain: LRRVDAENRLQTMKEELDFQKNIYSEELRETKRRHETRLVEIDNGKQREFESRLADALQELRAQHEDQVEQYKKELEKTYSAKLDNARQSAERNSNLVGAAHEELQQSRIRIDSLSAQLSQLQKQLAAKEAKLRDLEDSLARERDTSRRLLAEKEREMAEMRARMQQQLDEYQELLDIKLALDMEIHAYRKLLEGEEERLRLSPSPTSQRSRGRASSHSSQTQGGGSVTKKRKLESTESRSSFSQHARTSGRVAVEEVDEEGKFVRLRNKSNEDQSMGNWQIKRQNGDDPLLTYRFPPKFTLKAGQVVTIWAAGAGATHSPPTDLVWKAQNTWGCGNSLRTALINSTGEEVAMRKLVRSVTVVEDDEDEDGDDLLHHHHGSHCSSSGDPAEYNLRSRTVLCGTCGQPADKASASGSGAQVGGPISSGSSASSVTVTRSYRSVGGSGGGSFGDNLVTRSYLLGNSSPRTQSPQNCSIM

T2: rev-caspase-3 (human, UniProt P42574 1-175, limits assumed)
T2 sequence: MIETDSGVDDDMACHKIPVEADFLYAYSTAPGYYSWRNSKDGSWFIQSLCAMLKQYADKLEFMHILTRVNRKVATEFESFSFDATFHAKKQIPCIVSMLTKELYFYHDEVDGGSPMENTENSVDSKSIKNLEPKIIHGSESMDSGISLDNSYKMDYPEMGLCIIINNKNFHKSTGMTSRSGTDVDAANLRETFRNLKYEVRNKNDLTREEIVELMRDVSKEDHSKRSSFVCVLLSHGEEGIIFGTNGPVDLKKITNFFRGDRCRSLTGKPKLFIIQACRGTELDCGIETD

B1: rev-caspase-3 (protein)
chain: T2 sequence
B2: caspase-6 (wild type) (protein)
chain: MSSASGLRRGHPAGGEENMTETDAFYKREMFDPAEKYKMDHRRRGIALIFNHERFFWHLTLPERRGTCADRDNLTRRFSDLGFEVKCFNDLKAEELLLKIHEVSTVSHADADCFVCVFLSHGEGNHIYAYDAKIEIQTLTGLFKGDKCHSLVGKPKIFIIQACRGNQHDVPVIPLDVVDNQTEKLDTNITEVDAASVYTLPAGADFLMCYSVAEGYYSHRETVNGSWYIQDLCEMLGKYGSSLEFTELLTLVNRKVSQRRVDFCKDPSAIGKKQVPCFASMLTKKLHFFPKSN
B3: rev-caspase-6 (protein)
chain: MVEIDAASVYTLPAGADFLMCYSVAEGYYSHRETVNGSWYIQDLCEMLGKYGSSLEFTELLTLVNRKVSQRRVDFCKDPSAIGKKQVPCFASMLTKKLHFFPKSNLEHHHHHHVEIDGGSPMSSASGLRRGHPAGGEENMTETDAFYKREMFDPAEKYKMDHRRRGIALIFNHERFFWHLTLPERRGTCADRDNLTRRFSDLGFEVKCFNDLKAEELLLKIHEVSTVSHADADCFVCVFLSHGEGNHIYAYDAKIEIQTLTGLFKGDKCHSLVGKPKIFIIQACRGNQHDVPVIPLDVVD
B4: caspase-3 (wild type) (protein)
chain: MENTENSVDSKSIKNLEPKIIHGSESMDSGISLDNSYKMDYPEMGLCIIINNKNFHKSTGMTSRSGTDVDAANLRETFRNLKYEVRNKNDLTREEIVELMRDVSKEDHSKRSSFVCVLLSHGEEGIIFGTNGPVDLKKITNFFRGDRCRSLTGKPKLFIIQACRGTELDCGIETDSGVDDDMACHKIPVDADFLYAYSTAPGYYSWRNSKDGSWFIQSLCAMLKQYADKLEFMHILTRVNRKVATEFESFSFDATFHAKKQIPCIVSMLTKELYFYH
B5: z-VAD-fmk (peptide)
peptide: {code z}-Val-Ala-Asp-fmk
modifications: reading uncertain; also: printed as z-VAD-fmk

Sequence of poly(ADP) ribose polymerase (PARP), P09874 (P09874 whole entry, looked up): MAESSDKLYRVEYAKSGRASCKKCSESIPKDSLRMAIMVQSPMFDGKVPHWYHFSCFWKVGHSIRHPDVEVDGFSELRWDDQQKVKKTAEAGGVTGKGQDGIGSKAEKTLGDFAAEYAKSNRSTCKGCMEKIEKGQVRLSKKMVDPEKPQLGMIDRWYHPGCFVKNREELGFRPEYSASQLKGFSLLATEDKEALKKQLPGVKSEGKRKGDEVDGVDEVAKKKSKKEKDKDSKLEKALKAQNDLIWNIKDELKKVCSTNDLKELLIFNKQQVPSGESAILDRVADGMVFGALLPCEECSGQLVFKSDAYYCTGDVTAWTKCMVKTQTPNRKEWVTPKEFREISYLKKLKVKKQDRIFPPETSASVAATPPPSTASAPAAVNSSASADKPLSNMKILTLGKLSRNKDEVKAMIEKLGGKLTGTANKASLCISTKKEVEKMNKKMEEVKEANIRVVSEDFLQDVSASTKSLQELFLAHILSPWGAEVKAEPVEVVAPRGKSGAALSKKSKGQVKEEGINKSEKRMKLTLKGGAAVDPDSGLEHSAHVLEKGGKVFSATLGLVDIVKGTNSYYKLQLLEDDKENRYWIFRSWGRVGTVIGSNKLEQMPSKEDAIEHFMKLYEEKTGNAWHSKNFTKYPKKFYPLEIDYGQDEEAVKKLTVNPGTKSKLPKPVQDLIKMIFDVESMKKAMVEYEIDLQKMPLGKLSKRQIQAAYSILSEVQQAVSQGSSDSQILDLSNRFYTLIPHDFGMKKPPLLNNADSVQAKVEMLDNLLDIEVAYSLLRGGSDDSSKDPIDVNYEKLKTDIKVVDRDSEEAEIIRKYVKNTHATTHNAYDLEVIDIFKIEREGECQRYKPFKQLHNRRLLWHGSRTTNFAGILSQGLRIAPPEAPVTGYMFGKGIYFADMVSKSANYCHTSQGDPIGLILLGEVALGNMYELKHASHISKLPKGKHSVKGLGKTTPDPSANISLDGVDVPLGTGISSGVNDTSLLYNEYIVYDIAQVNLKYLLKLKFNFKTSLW

The first data set concerns the target poly(ADP) ribose polymerase (PARP), P09874.
Experiment: not given
Turning to B1, the “substrate cleavage (bacterial extract incubated with purified PARP, Western blot)” value was “Both caspase-3 variants (rev and WT), but not caspase-6 variants efficiently cleaved PARP”. On the same count and under the same terms, for B2 the value was “Both caspase-3 variants (rev and WT), but not caspase-6 variants efficiently cleaved PARP”; for B3, “Both caspase-3 variants (rev and WT), but not caspase-6 variants efficiently cleaved PARP”; for B4, “Both caspase-3 variants (rev and WT), but not caspase-6 variants efficiently cleaved PARP”.

The target in another data set is T1, C-terminus of lamin A, P02545.
Experiment: not given
For the molecule B1, the “substrate cleavage (bacterial extract incubated with 35S-labelled lamin A C-terminus, autoradiography)” value is reported as “both caspase-6 variants, but not caspase-3 variants efficiently cleaved lamin”. Still for that read-out and setting: under B2 stands “both caspase-6 variants, but not caspase-3 variants efficiently cleaved lamin”; under B3, “both caspase-6 variants, but not caspase-3 variants efficiently cleaved lamin”; under B4, “both caspase-6 variants, but not caspase-3 variants efficiently cleaved lamin”.

Another data set deals with T2, rev-caspase-3. In words: cell-based or functional assay.
For the molecule B5, the “amount of inhibitor required for complete inhibition, relative to DEVD-CHO” value is ~10 fold.
